# In the supplement of paper PMC10899765:
# System: MCF10A
# Experiment: percent viability (nuclei count relative to siNT); higher = more viable cells
# Conditions: 20 nM; 72 h
# Method: (§1)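 After 72 h, cells were fixed and stained with Hoechst and anti-fibrillarin, and nucleoli per nucleus were counted with CellProfiler. Values are plate-adjusted percent effect for the one-nucleolus and 5+ nucleoli phenotypes, normalised to siNT (0%) and to the positive controls siNOL11 or siKIF11 (100%), as the mean of biological triplicates. Percent viability is the nuclei count relative to siNT.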
row,Sequence,percent viability [%]
1,GGAUAUCAUCAUAUACUGUAAG [hsa-miR-144-5p],54.5
2,UUGAGGAGACAUGGUGGGGGCC [hsa-miR-4689],103
3,GGCGCGCCCAGCUCCCGGGCU [hsa-miR-4783-5p],90.3
4,GGUAGAUUUUCCUUCUAUGGU [hsa-miR-376a-2-5p],71.5
5,UUAGGCCGCAGAUCUGGGUGA [hsa-miR-1295a],33.2
6,GAGGGCAGAGCCAGCUUCCUGA [hsa-miR-7843-5p],32.5
7,GUGCAUUGUAGUUGCAUUGCA [hsa-miR-33a-5p],46
8,AUCCCACCUCUGCCACCA [hsa-miR-1260a],42.3
9,CACAGGCUUAGAAAAGACAGU [hsa-miR-4438],11.8
10,AAAAGUAAUCGCGGUUUUUGUC [hsa-miR-548h-5p],101
11,UCUCUGGAGGGAAGCACUUUCUG [hsa-miR-518c-5p],45.4
12,UGGCAAACGUGGAAGCCGAGA [hsa-miR-4470],15.8
13,UCACAAGUCAGGCUCUUGGGAC [hsa-miR-125b-2-3p],37.1
14,UUCAUUUGGUAUAAACCGCGAUU [hsa-miR-579],29
15,AUCGUGCAUCCCUUUAGAGUGU [hsa-miR-517a-3p],46.8
16,AACCAGCACCCCAACUUUGGAC [hsa-miR-634],4.33
17,UAAAGUGCUUAUAGUGCAGGUAG [hsa-miR-20a-5p],81.6
18,UCUUGAAGUCAGAACCCGCAA [hsa-miR-4635],45.8
19,UUGCAUAGUCACAAAAGUGAUC [hsa-miR-153],116
20,AGUUGCCAGGGCUGCCUUUGGU [hsa-miR-6501-5p],47.2

row,Sequence,percent viability [%]
1,UCUCUUCAUCUACCCCCCAG [hsa-miR-6515-3p],85.2
2,UCAGCACCAGGAUAUUGUUGGAG [hsa-miR-3065-3p],67.2
3,GUUUUACCACCUCCAGGAGACU [hsa-miR-2681-5p],36
4,GUAGCACCUUGCAGGAUAAGGU [hsa-miR-5682],72.9
5,UACUUUUCUAGGUUGUUGGGG [hsa-miR-5003-3p],24.9
6,UCUGGGGAUGAGGACAGUGUGU [hsa-miR-4700-5p],35.8
7,CACCUUUGUGUCCCCAUCCUGCA [hsa-miR-6782-3p],51.1
8,AGGGCUUAGCUGCUUGUGAGCA [hsa-miR-27a-5p],19.8
9,GGCUCAUGUGUCUGUCCUCUUC [hsa-miR-6847-3p],44.2
10,UUUUGCAAUAUGUUCCUGAAUA [hsa-miR-450b-5p],108
11,UUCUCCAAAAGAAAGCACUUUCUG [hsa-miR-515-5p],91.4
12,CAACCACCACUGUCUCUCCCCAG [hsa-miR-6776-3p],91.3
13,UGGAAGACUAGUGAUUUUGUUGU [hsa-miR-7-5p],51.8
14,AUCAAGGAUCUUAAACUUUGCC [hsa-miR-561-5p],38.8
15,AGGAGGGAGGAGAUGGGCCAAGUU [hsa-miR-1249-5p],11.3
16,CAGGCGUCUGUCUACGUGGCUU [hsa-miR-3186-5p],23.1
17,UUUUGCACCUUUUGGAGUGAA [hsa-miR-507],42.2
18,CAGGCAGUGACUGUUCAGACGUC [hsa-miR-2682-5p],12.3
19,GGAGACUGAUGAGUUCCCGGGA [hsa-miR-873-3p],106
20,UUCUAGAUGAGAGAUAUAUAUA [hsa-miR-4777-5p],34.7

row,Sequence,percent viability [%]
1,GUGGGCUGGGCUGGGCUGGGCC [hsa-miR-3620-5p],31.3
2,UGUGACUUUAAGGGAAAUGGCG [hsa-miR-3164],22.9
3,ACCUUCUUGUAUAAGCACUGUGCUAAA [hsa-miR-1248],96.5
4,GUGAAUUACCGAAGGGCCAUAA [hsa-miR-183-3p],56.8
5,ACAGUCUGCUGAGGUUGGAGC [hsa-miR-622],86.2
6,AGAUAUUUUGAGUGUUUGGAAUUG [hsa-miR-3145-3p],48.7
7,AGAGCUUAGCUGAUUGGUGAAC [hsa-miR-27b-5p],78.6
8,GGAGGCCGGGGUGGGGCGGGGCGG [hsa-miR-6089],153
9,GAACGCGCUUCCCUAUAGAGGGU [hsa-miR-523-3p],119
10,AAAAGCUGGGUUGAGAGGGCAA [hsa-miR-320b],59
11,CUUCUCUUCUCUCCUUCCCAG [hsa-miR-6809-3p],31
12,GAGGCUGAUGUGAGUAGACCACU [hsa-miR-3929],30.5
13,AGGGGGCGGGCUCCGGCG [hsa-miR-4488],70.5
14,UGAGGUGGUAGGAUGUAGA [hsa-miR-6134],12
15,UGGAAAAAACUGGUGUGUGCUU [hsa-miR-3148],35.9
16,ACCUGGCAUACAAUGUAGAUUU [hsa-miR-221-5p],36
17,ACAGCAGGCACAGACAGGCAGU [hsa-miR-214-3p],19.3
18,CCUCACCCAGCUCUCUGGCCCUCU [hsa-miR-6862-3p],72
19,CAGGGCCUCACUGUAUCGCCCA [hsa-miR-4512],20

# System: MCF10A
# Experiment: 5+ nucleoli phenotype percent effect (relative to siNT 0% and siKIF11 100%); higher = more cells with five or more nucleoli
# Conditions: 20 nM; 72 h
# Method: as §1
row,Sequence,5+ nucleoli phenotype percent effect [%]
1,GGAUAUCAUCAUAUACUGUAAG [hsa-miR-144-5p],2.47
2,UUGAGGAGACAUGGUGGGGGCC [hsa-miR-4689],2.8
3,GGCGCGCCCAGCUCCCGGGCU [hsa-miR-4783-5p],28
4,GGUAGAUUUUCCUUCUAUGGU [hsa-miR-376a-2-5p],62
5,UUAGGCCGCAGAUCUGGGUGA [hsa-miR-1295a],-12.5
6,GAGGGCAGAGCCAGCUUCCUGA [hsa-miR-7843-5p],13.7
7,GUGCAUUGUAGUUGCAUUGCA [hsa-miR-33a-5p],-0.156
8,AUCCCACCUCUGCCACCA [hsa-miR-1260a],24.8
9,CACAGGCUUAGAAAAGACAGU [hsa-miR-4438],25.6
10,AAAAGUAAUCGCGGUUUUUGUC [hsa-miR-548h-5p],35.8
11,UCUCUGGAGGGAAGCACUUUCUG [hsa-miR-518c-5p],-17.1
12,UGGCAAACGUGGAAGCCGAGA [hsa-miR-4470],-21.5
13,UCACAAGUCAGGCUCUUGGGAC [hsa-miR-125b-2-3p],-44.2
14,UUCAUUUGGUAUAAACCGCGAUU [hsa-miR-579],-37.2
15,AUCGUGCAUCCCUUUAGAGUGU [hsa-miR-517a-3p],-11.8
16,AACCAGCACCCCAACUUUGGAC [hsa-miR-634],-57.2
17,UAAAGUGCUUAUAGUGCAGGUAG [hsa-miR-20a-5p],6.94
18,UCUUGAAGUCAGAACCCGCAA [hsa-miR-4635],-29.8
19,UUGCAUAGUCACAAAAGUGAUC [hsa-miR-153],83
20,AGUUGCCAGGGCUGCCUUUGGU [hsa-miR-6501-5p],-26.4
21,UCUCUUCAUCUACCCCCCAG [hsa-miR-6515-3p],-2.57
22,UCAGCACCAGGAUAUUGUUGGAG [hsa-miR-3065-3p],62.3
23,GUUUUACCACCUCCAGGAGACU [hsa-miR-2681-5p],3.14
24,GUAGCACCUUGCAGGAUAAGGU [hsa-miR-5682],12.2
25,UACUUUUCUAGGUUGUUGGGG [hsa-miR-5003-3p],-39.5
26,UCUGGGGAUGAGGACAGUGUGU [hsa-miR-4700-5p],-10.2
27,CACCUUUGUGUCCCCAUCCUGCA [hsa-miR-6782-3p],49.2
28,AGGGCUUAGCUGCUUGUGAGCA [hsa-miR-27a-5p],-11.3
29,GGCUCAUGUGUCUGUCCUCUUC [hsa-miR-6847-3p],1.91
